Target: T1, Bfd (Pseudomonas aeruginosa, UniProt Q9HY80)
T1 chain: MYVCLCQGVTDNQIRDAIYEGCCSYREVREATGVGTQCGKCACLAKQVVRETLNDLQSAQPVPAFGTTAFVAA
Assay: SPR

B1: BfrB (protein)
chain: not shown
modifications: apo-BfrB (heme-free)
Kd: 3.1 µM

— publication PMC6535718 (2019)
